From publication PMC11248248, “Dual protection by Bcp1 and Rkm1 ensures incorporation of uL14 into pre-60S ribosomal subunits” (The Journal of Cell Biology, 2024)

T1: GST-Kap123 (S. cerevisiae, UniProt P40069 1-1113)
T1 construct: importin Kap123, S. cerevisiae; also called karyopherin; importin; source: recombinant, purified on glutathione beads; not shown: GST, N-terminal, kept
T1 sequence (looked up): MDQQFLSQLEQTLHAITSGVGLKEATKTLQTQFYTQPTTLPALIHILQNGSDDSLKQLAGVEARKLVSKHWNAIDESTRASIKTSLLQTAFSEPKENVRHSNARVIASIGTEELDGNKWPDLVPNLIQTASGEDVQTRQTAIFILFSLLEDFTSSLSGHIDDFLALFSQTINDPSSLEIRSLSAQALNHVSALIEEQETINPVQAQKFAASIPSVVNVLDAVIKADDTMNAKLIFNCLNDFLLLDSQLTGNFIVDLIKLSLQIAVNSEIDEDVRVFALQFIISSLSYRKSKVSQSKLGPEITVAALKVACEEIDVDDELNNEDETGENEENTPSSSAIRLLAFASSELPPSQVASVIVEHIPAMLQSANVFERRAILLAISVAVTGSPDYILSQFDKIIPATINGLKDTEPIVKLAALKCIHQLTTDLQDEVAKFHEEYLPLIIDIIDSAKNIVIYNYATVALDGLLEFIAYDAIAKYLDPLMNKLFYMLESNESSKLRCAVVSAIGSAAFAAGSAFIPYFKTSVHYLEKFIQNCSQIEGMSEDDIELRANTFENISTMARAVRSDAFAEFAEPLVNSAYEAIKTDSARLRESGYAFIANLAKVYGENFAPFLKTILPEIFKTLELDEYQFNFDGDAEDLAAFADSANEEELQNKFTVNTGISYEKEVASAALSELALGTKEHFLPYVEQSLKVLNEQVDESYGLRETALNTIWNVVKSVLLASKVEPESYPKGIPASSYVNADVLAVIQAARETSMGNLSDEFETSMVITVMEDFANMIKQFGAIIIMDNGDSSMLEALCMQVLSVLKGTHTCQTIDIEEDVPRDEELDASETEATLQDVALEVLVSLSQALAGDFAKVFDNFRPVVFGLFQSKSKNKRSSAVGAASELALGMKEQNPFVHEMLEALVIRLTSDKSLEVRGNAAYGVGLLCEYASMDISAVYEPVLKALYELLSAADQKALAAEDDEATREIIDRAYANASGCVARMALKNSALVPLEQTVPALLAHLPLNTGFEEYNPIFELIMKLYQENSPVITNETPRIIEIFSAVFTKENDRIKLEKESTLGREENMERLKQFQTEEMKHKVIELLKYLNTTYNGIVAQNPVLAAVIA

T2: GST-Kap121 (S. cerevisiae, UniProt P32337 1-1089)
T2 construct: importin Kap121 (Pse1), S. cerevisiae; also called karyopherin; importin; source: recombinant, purified on glutathione beads; not shown: GST, N-terminal, kept
T2 sequence (looked up): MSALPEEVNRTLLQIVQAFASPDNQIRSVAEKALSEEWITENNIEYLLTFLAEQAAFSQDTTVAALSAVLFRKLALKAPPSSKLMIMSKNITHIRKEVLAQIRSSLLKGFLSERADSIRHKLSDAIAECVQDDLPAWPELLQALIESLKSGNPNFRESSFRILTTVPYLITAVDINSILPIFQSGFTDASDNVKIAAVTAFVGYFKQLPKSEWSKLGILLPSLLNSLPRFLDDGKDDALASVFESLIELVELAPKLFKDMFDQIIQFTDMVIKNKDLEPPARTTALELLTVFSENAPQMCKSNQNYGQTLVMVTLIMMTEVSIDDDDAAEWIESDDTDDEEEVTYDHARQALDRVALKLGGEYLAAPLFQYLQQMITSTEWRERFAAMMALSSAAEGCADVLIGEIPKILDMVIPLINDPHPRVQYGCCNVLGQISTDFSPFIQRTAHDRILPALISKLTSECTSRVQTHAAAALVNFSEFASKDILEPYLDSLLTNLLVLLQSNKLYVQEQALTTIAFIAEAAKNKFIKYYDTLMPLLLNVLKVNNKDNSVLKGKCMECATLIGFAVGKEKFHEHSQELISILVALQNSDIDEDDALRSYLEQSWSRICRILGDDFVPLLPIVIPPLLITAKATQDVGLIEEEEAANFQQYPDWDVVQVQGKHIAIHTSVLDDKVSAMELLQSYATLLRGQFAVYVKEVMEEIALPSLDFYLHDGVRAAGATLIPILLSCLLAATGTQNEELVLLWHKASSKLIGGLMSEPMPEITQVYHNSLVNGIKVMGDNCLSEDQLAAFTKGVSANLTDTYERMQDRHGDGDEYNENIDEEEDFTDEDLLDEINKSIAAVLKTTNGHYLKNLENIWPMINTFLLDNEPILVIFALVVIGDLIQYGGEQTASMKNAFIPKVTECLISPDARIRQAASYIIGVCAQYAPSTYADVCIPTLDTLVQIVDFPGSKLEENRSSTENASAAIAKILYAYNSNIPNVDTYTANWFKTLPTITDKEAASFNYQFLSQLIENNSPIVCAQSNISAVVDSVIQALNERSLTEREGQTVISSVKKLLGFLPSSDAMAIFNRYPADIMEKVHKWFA

T3: Rkm1-His6 (S. cerevisiae, UniProt Q08961 1-583)
T3 construct: Rkm1, ribosomal lysine methyltransferase with SET domain, S. cerevisiae; also called recombinant Rkm1; source: E. coli BL21(DE3), purified (Ni-NTA, Superdex 200)
T3 sequence (looked up): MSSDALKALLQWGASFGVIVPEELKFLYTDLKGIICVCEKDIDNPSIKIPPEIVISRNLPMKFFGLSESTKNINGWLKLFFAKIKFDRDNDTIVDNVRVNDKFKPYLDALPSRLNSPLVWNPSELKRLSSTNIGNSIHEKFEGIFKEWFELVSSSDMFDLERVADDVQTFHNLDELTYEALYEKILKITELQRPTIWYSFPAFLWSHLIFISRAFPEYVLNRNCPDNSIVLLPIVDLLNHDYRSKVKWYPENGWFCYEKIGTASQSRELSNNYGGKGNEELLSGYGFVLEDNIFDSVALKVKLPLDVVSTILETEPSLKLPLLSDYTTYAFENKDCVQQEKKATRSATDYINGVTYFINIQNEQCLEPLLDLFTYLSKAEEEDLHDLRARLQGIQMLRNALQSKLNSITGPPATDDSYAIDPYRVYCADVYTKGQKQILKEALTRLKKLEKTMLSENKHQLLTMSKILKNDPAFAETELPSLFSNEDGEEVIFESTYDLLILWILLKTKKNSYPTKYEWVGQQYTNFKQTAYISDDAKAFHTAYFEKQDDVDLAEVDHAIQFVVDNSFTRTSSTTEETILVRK

B1: Bcp1-His6 (natural protein, S. cerevisiae, UniProt Q06338 1-283, looked up)
chain: MVQAIKLNDLKNRKRKNVEEENGSDESEIDISSTDSENEEEQNGEEEIVNIDFDFFGGNPEVDFHALKNLLRQLFGPQESTRIQLSSLADLILGSPTTTIKTDGKESDPYCFLSFVDFKANHLSDYVKYLQKVDMRLSTFFKTMIDSGNKNCALVLSERLINMPPEVVPPLYKITLEDVATALGDDKHYDFYIIVTRKYEVNFDTDDDTDSGKRNKNKDERSKKRVKADEVDYFHEEDRFFEKYAKIHFESEAKKGVISSYMILDHEGLVKSIDELETEISTW
notes: Bcp1, S. cerevisiae; also called full-length Bcp1; recombinant Bcp1

Columns and labels:
Conditions in all cases: both partners purified
GST-Kap123 = molecular target: T1, GST-Kap123; test: pull-down; GST-Kap121 or GST-Kap123 on glutathione beads, incubated with recombinant proteins at 4°C for 1 h, three washes; Coomassie staining and western blotting
GST-Kap121 [1] = molecular target: T2, GST-Kap121; test: pull-down; release test: GST-Kap in complex with cargo immobilised on glutathione beads, purified Bcp1 or bcp1ΔN added for another hour at 4°C; what is left on the beads or in the supernatant by western blotting
Rkm1-His6 = molecular target: T3, Rkm1-His6; test: SEC; HiLoad 16/600 Superdex 200; Bcp1, uL14 and Rkm1 mixed; ratio from band intensity in SDS-PAGE and molecular weight estimated from SEC
Bcp1-His6 [2] = molecular target: B1; test: as above
GST-Rkm1/uL14 complex = molecular target: T4, GST-Rkm1/uL14 complex (S. cerevisiae, UniProt Q08961 1-583; P0CX41 1-137); test: pull-down; purified Bcp1 or bcp1∆N20 added to the GST-Rkm1/uL14 complex immobilised on glutathione beads, with or without 0.5 mM SAM, 30°C, 80 min; beads and supernatants analysed
T4 construct: Rkm1, S. cerevisiae; as the chain of m12; uL14 (Rpl23), S. cerevisiae; as the chain of m2; also called Rkm1/uL14 complex on glutathione beads; source: recombinant, purified with glutathione beads

Bcp1-His6 [3] = molecular target: B1; test: pull-down; Bcp1-His6 in the supernatants of the methylation reactions (Fig. 6 A, lanes 7 and 8) purified on Ni-NTA beads; bound uL14 and its methylation by western blotting
GST-Kap121 [4] = molecular target: T2, GST-Kap121; test: pull-down; GST-Kap121 or GST-Kap123 on glutathione beads, incubated with recombinant proteins at 4°C for 1 h, three washes; Coomassie staining and western blotting

T4 sequence (P0CX41 whole entry, one chain of several): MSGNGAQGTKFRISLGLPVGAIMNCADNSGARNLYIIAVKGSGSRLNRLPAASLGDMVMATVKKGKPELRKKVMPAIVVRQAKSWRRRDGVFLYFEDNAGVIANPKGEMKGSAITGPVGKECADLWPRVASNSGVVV

| binding result (GST-Kap123) | binding result (GST-Rkm1/uL14 complex) | binding result (GST-Kap121 [4]) | Binder | other results |
| --- | --- | --- | --- | --- |
| binds |  |  | uL14 (recombinant) (natural protein, ribosomal protein uL14 (Rpl23), S. cerevisiae, encoded by RPL23A and RPL23B; No tag is named for recombinant uL14; for the Bcp1/uL14 complex its bacterial pellet was lysed together with that of Bcp1-His6; also called Rpl23; source: E. coli BL21(DE3), purified) not shown | binding result (GST-Kap121 [1]): binds; stoichiometry N (Rkm1-His6): ~1; stoichiometry N (Bcp1-His6 [2]): ~1 |
|  | binds |  | bcp1ΔN20 (domain or fragment, S. cerevisiae, UniProt Q06338 21-283, looked up, Bcp1, S. cerevisiae, truncated by 20 amino acids from the N terminus; also called bcp1(∆N20); Bcp1(∆N20); source: E. coli, purified) ENGSDESEIDISSTDSENEEEQNGEEEIVNIDFDFFGGNPEVDFHALKNLLRQLFGPQESTRIQLSSLADLILGSPTTTIKTDGKESDPYCFLSFVDFKANHLSDYVKYLQKVDMRLSTFFKTMIDSGNKNCALVLSERLINMPPEVVPPLYKITLEDVATALGDDKHYDFYIIVTRKYEVNFDTDDDTDSGKRNKNKDERSKKRVKADEVDYFHEEDRFFEKYAKIHFESEAKKGVISSYMILDHEGLVKSIDELETEISTW |  |
|  |  |  | methylated uL14 (natural protein, methylated at K106 and K110, uL14 (Rpl23), S. cerevisiae; Methylation stoichiometry of K106 and K110 ~98.6% by AspN digestion; also called uL14 methylated in vitro by Rkm1 with SAM; source: recombinant uL14 methylated on GST-Rkm1 beads with 0.5 mM SAM, 30°C, 80 min) not shown | binding result (Bcp1-His6 [3]): binds |
|  |  | binds | bcp1ΔN10 (domain or fragment, S. cerevisiae, UniProt Q06338 11-283, looked up, Bcp1, S. cerevisiae, truncated by 10 amino acids from the N terminus; also called bcp1(∆N10); bcp1∆N10; source: E. coli, purified) KNRKRKNVEEENGSDESEIDISSTDSENEEEQNGEEEIVNIDFDFFGGNPEVDFHALKNLLRQLFGPQESTRIQLSSLADLILGSPTTTIKTDGKESDPYCFLSFVDFKANHLSDYVKYLQKVDMRLSTFFKTMIDSGNKNCALVLSERLINMPPEVVPPLYKITLEDVATALGDDKHYDFYIIVTRKYEVNFDTDDDTDSGKRNKNKDERSKKRVKADEVDYFHEEDRFFEKYAKIHFESEAKKGVISSYMILDHEGLVKSIDELETEISTW |  |
| binds |  | binds | Rkm1/uL14 complex (complex, Rkm1, S. cerevisiae; uL14 (Rpl23), S. cerevisiae; as the chain of m2; also called uL14/Rkm1 complex; source: E. coli, recombinant, purified) chain 1: MSSDALKALLQWGASFGVIVPEELKFLYTDLKGIICVCEKDIDNPSIKIPPEIVISRNLPMKFFGLSESTKNINGWLKLFFAKIKFDRDNDTIVDNVRVNDKFKPYLDALPSRLNSPLVWNPSELKRLSSTNIGNSIHEKFEGIFKEWFELVSSSDMFDLERVADDVQTFHNLDELTYEALYEKILKITELQRPTIWYSFPAFLWSHLIFISRAFPEYVLNRNCPDNSIVLLPIVDLLNHDYRSKVKWYPENGWFCYEKIGTASQSRELSNNYGGKGNEELLSGYGFVLEDNIFDSVALKVKLPLDVVSTILETEPSLKLPLLSDYTTYAFENKDCVQQEKKATRSATDYINGVTYFINIQNEQCLEPLLDLFTYLSKAEEEDLHDLRARLQGIQMLRNALQSKLNSITGPPATDDSYAIDPYRVYCADVYTKGQKQILKEALTRLKKLEKTMLSENKHQLLTMSKILKNDPAFAETELPSLFSNEDGEEVIFESTYDLLILWILLKTKKNSYPTKYEWVGQQYTNFKQTAYISDDAKAFHTAYFEKQDDVDLAEVDHAIQFVVDNSFTRTSSTTEETILVRK chain 2: not shown |  |
|  | binds | binds | B1 |  |
